This data set is described as follows: soluble on expression in E. coli; label from the status in PepcDB or PDB records.
With “MGSDKIHHHHHHSCEKDPDLSKLDNNFTVYTNYDSKTNFNDFKTYCLPDSILLIGQGMKAEFWKDENAQEIIKQVADEMDTRGYTRVKVIKNANIGLQLSFTRQTTQIIGTGGWYGGGWYNGWWGPGYWGPYWNDWYYPYPVTYSYNTGTLIMEMVNLTDHPEDTSQKVKLPVIWHSYATGLLFENSKYNMQLTLDAVNQAFDQSPYIKKS”, the “soluble on expression in E. coli” value is recorded as “not soluble”.
Under “MGSDKIHHHHHHSDDREMDDGRWKASALRVPLQVSSAVIKQEVVTRLAPDPVPLTEGAIGIFLSGTEPESGQEDSGYKVIDNRKYVYSEGHWGPPTANDTIYLVGNDADVCAYYPYKDSYTDKTVIPLQSQDYVETEDIYYALNTMINGFTPAITFDMVHAYSLVELKISRENYFMPCEISKITLKNSNLIKKGTINIAVDGSIHSSETGNYDLTTVTDASPHTLSVGESYVCRVLMIPVPLKIERTDAEGGEFGLSVSLVIDGQQMLVEIPYSELGEFRQGEKYVIGLKIKGTEIVPTVKALEWEDEEVNGGNKYPVE” stands “not soluble”; under “MGSDKIHHHHHHSEDINRNPLLPTKEDEKMDGVIYGAYLPNLEKSVIPIGTASESTEPVNRYQIGVNLAGDAWAGYMSPRDNKFNGSKNFTNYFMYENWVNYVYSFMVTDVYSPWMQIKRISQDEGTRNDEIYALAQIIKIAALHRTTDMFGPIPYSQVGKGSFKVAYDSQESVYRSFLKELEEAVQTLDDYSNKSKEVLPAFDIVYNGDVNKWMRFANSLMLRLAIRVRFADAGLAKEYAEKAVKHPAGLINSKELAAQMGKGAGLQMKNPLKVINEEYNDTRMGATIYSYLAGYNDARAAVYFVKNNGFKAVRCGIAKSGDAYNGFTRPNVHEDDPLYWMKASEVCFLKAEGALAGFDMGGSAGDFYNAGIRMSFSENGLDNSSAETYLKDSTRKPANYTDTSNGELSANAPSSITIRWENGATEEEKLERIITQKYLAIFPNGQEAWTEWRRTGYPRQIVVAENKTNSAVLIGNGYDLGGVRRLPYPRTEYEQNGENLHNAISQYLGGVDNAATKVWWDKKSK”, “not soluble”; under “MGSDKIHHHHHHSSCGNDESDPDSTVTIAMATVEKQPQYDAPYLVLDNGEKLWVVQHIVPYRDLKAGERIFGNYSFLEAGESGFAYNIRLNDYTLVPVQKIIGLNPDNMDSIGNMKVQIKDMWPSDDYLNVRFMLNFPSPQKPILNLVVNEMIPWTKDGYAHLELRYNNNGSQGRLVPGMVSFKLDDYSPENSELKGIKVLVNPVDGEEKTYIFSYPLTGEDVPGFNPLDLAELK”, “not soluble”.
For the sequence “MGSDKIHHHHHHVASQTPGTEAQSQTVQPGRIAAISLHTSPLDQPGTGDAGGMNVYIVEVAKRLAERGIAVDIFTRATSFEQPPEVELAPGVTVRNIAAGPYGTLDKTALINYLCPFVHGMLRAEAEHLGGSYDLVHTHYWLSGQAGWPVAREWGVPLVHSMHTMARVKNMSLAEGDTPEPEERVRGEDALVALADRLIANTDDEAAQLINYYGASPSRVSTVFPGVDLTTFTPGSRAESLRRLGLPEDTILLLFVGRVQRLKAPDVLLRAAARLLELNPSLRDRLVVAVVGGQSGTGYREPWLLSDLADSLGIADLVRLEPPCPRAELVHYYRAATVTVVPSHSESFGLVAVESQACGTPVVAARVGGLPTAVRDGVSGVLIDGHDPHDYANVLHRMITEPRWRERMGAAGIHHASGLSWESTVDGLLAAYRDALHQCRLTVPCR”, the “soluble on expression in E. coli” value is reported as “not soluble”.
For “MGSDKIHHHHHHVDIQQIRNATLVVNYANQVFLIDPFLGEKGSLPPFGETPNAVPNPLVDLPVDVSTLLDPDAIFVTHLHADHFDETAKEILPKQIPLYAQNQADAATIREAGFTNVSSFENGLALGDIRVYHTSGRHGVGEIGQRMGTVSGLVLTHPDEPTLYIAGDTIWCEEVETAIEQHAPDIIIVNSGAAQFLTGEPITMSQRDLLAVHQAAAEATIIVSHLESVNHCLLRRDMIADFLAAHHLSAHFLIPDDGETISF”, the “soluble on expression in E. coli” value was “not soluble”.
As to “MGSDKIHHHHHHVGNLLVNLAMVLRQPTGISTYALSLLPYLRSLQPTLLSDRLYEGFDHQLISSRLCSDRGRRARLARLYWTQTQVPKLYRRLGSRLLFSPAPEAPIDRHCRSVVMVHDLRPLQLPSHSWQTYYFRWVVPKIVAQASHVLCNSEATATDLCHFYQLPAQKITPIYLGYDRQHYQPWSGKTSNYFLHIGQQFPHKNLERLIRAFAQLPTDYQLYLAGSRHASETPRLEQLVHSLGLRDRVQFLRYVDYADLPRLIGEAIALVYPSLWEGFGLPILEAMACGTPVITAHGSSLSEVGGEAVLYVDPYRIEAIAAAMRDLIDDSNLRQSLRDRGFQQASRFSWEATGKETCQVLEKFL”, the “soluble on expression in E. coli” value was “not soluble”.
Consider “MGSDKIHHHHHHVSEAIVFTSGKGGVGKTTVISNIGVELSQLDKKVIMLDTDMGLRNLDLVMGIEDKVNYNILDILNRSCRIRQAIIRNKKYPNLYVIPAAPSMDTLCSYEARFKILIEELKASFDYCLIDSPAGIDSGFWFSVSPADRAIVVTTPHVSAIHDARRCISLLDSAHLDDISVIVNAYDKHMVRRHQMISDNDITALLSTRIIGTIPYDKSVIICQNRGIPVREAKSRLSPVFARISGQIIHSSDDMRGAAV”, for which the “soluble on expression in E. coli” value was “not soluble”.
“MGSDKIHHHHHHVTIPTQAKFTLRGRNPDVLSCIANLSNDEVFTPPEFAARMLDTLAQAWAEDHGGANLWADPTVRFLDPCTKSGVFLREITRRLVEGLAEQMPDLQKRVDHILTRQVFGIGITRLTALLARRSVYCSKYANGPHSIAKSFTTEAGNIWFERVEHTWKNGRCVYCGASQGTLDRGEELESHAYAFIHTDDIKTRITEIFGDDMQFDVIIGNPPYQLASDGGTRDIPIYQHFVEQAKKLDPKYLVMVIPSRWMASGLGLSEFRQTMLADRRIRELVDFPVATEVFPGVEVKGGVCYFLWNAAREGDCNVTTVRGEELRSCTLQF”: the “soluble on expression in E. coli” value is “not soluble”.
For “MGSDKIHHHHHHVTSQAPVEVMTDIMTKFTSYIGKRLPTDIKEKLADLREAETNPMANVLFDSMAENQEAADKLNRPSCQDTGVIQYFITAGAKFPLLGELEEILRNATLGATKLGPLRHNAVEAFDEKNTGTNTGSRIPWLDWEIVPNDDGVIIDVYMAGGGCTLPGASTVLMPGQGYEGVVDFVFDVVTSRGINACPPLLIGVGVSTSAETAARLSKKAILRPVGSHHDNANAAKMETLLEDGLNELGIGPQGLTGNSSVMGVNIESSARHPSTIGVAVSTGCWAHRRGRIRFNADLSYEIVSHEGVVL” the value was “not soluble”; for “MGSDKIHHHHHHVTVHGLPAPSADTALYQSIMEAGFTAFPERLANWRRFKAAQRGERLDYLPVKLDVEHVSRCNYRCTMCQVSDWPKMTRAADMTVGDFKSLLEQQIGVVEIKLQGMGEPLLAAESFFEMIRHARERHIWVRATTNGSLLHIKENYKGLVESDICEIQVSIDGARPETYEAIRRGGKFERVAENCRLLNAHAAQDGRERTRMWVVVQQGNLADLDLLPKAAAEMGFKRLTLSLDLTSWGQETWERNNEALDAHDLLPVEKAWALVEEGKRLGVEVTFWAIDSKYDWSDPAKLCPWPFERAYIASDMRVVPCCMIANPDVLDMGDARDLTGVWTGERMAEFRRAHLEGRIPEVCNSCYRDPPAP”, “not soluble”.
For “MGSDKIHHHHHHVVAVNRAVFLDRDGVINKDHGYVHQVDDFEYIEGVFEACLALKKMGYKLVVVTNQSGIARGMYSEDQFHSLTEWMDWNFADKGVDLDGIYYCPHHAEKGMGEYKVDCDCRKPKPGMLNDAAKFLKVDLSQSVMVGDKADDMQAAKAAGVPTRILVRSGKVIADSSDATIVLDSIADVPDYLKA” the value was “not soluble”.
Under “MGSDKIHHHHHHYEKIYDVNHVCYYTLTSVELQKFVKTAEIITPLNADNKTTITKDTILVGNPEENPLTKKYIGFFKIKINKTFPGKNKGIIEKQIINGHTVILLAGSDIQGTYASIITFANLNDIPENPIICETSNKVNIYSTSLNSEYFRDFIEKNILTPKEIEKVKSLSYKLKGKDKKATIENIAKWVANNIKYDYDKCKKIESGKFSWDEYNTPSETVKTKKGVCLDYATLTSALLLNDNIIPYMLDVALYNTSSLKISSYHASVAVKIDNTYFVIDQQPYLIPINEYTAQTFEDNLRIASIVMFRVVKERDGIKLIKEKEVPGIAIYGDLINLLEMRFNN” stands “not soluble”; under “MGSEEYFKKGAIKVEIKSGALLISPSEFKERYLPTLQDMPVLAFVRNIEAPKSWYSYLISNIEDQKSSIFPTNLPRILEISRRYFSSVKNGIVVIDALEYLTIYNGFEAIAKFLATLRDFAILDNGTVIIITEKKAWKDREWALLTSLLGKLEHHHHHH”, “soluble”; under “MGSHHHHHHDITSLYKKAGSAAAVLEENLYFGGSFTMDMAADIASDHFISRRVDIGRITLNVREKGSGPLMLFFHGITSNSAVFEPLMIRLSDRFTTIAVDQRGHGLSDKPETGYEANDYADDIAGLIRTLARGHAILVGHSLGARNSVTAAAKYPDLVRSVVAIDFTPYIETEALDALEARVNAGSQLFEDIKAVEAYLAGRYPNIPADAIRIRAESGYQPVDGGLRPLASSAAMAQTARGLRSDLVPAYRDVTKPVLIVRGESSKLVSAAALAKTSRLRPDLPVVVVPGADHYVNEVSPEITLKAITNFIDA”, “soluble”.
“MGSQAAHMMSMDFEDFPVESAHRILTPRPTVMVTTVDEEGNINAAPFSFTMPVSIDPPVVAFASAPDHHTARNIESTHEFVINITPADIIERMWVTARDIPAGENELEAAGLAWTSSRRVKPPRIVEAPGHLECELLRMFEVGDHNLITGSVVSASVRSGAVKEGLLDVESVKPVLHVGGNKFVVGD”: the “soluble on expression in E. coli” value is given as “not soluble”.
For “MGSRRYDSRTTIFSPEGRLYQVEYALESISHAGTAIGIMASDGIVLAAERKVTSTLLEQDTSTEKLYKLNDKIAVAVAGLTADAEILINTARIHAQNYLKTYNEDIPVEILVRRLSDIKQGYTQHGGLRPFGVSFIYAGYDDRYGYQLYTSNPSGNYTGWKAISVGANTSAAQTLLQMDYKDDMKVDDAIELALKTLSKTTDSSALTYDRLEFATIRKGANDGEVYQKIFKPQEIKDILVKTGITKKDEDEEADEDMK” the value was “soluble”.
For “MGSSGGGGSGGGGVTADIGTGLADALTAPLDHKDKGLKSLTLEDSISQNGTLTLSAQGAEKTYGNGDSLNTGKLKNDKVSRFDFIRQIEVDGQLITLESGEFQVYKQSHSALTALQTEQEQDPEHSEKMVAKRRFRIGDIAGEHTSFDKLPKDVMATYRGTAFGSDDAGGKLTYTIDFAAKQGHGKIEHLKSPELNVDLAVAYIKPDEKHHAVISGSVLYNQDEKGSYSLGIFGEKAQEVAGSAEVETANGIHHIGLAAKQ” the value was “soluble”.
With “MGSSGMGVDANGKPIKRQPTTNNNNKKAGNNSNNQKKGNNQNNKNNKNQNGGNRNQNRQHHQPPMMQMVPPFGPMGPGGPGGPGFMGPPNGNMNFFNGQNRRNGSGKNNGNRNGAPPSGYNGPSANNVGQGAIGNNMNGAQPFAGPEPSMEVPGFGKNSNIHELFGKMIWRKMEQINDAALVDQLQNRIMNLIHDALASQNDKQQQQQQQQHQQGFNQQRGMPFGGPGNQNGPFGNNAGFQRF”, the “soluble on expression in E. coli” value is on record as “not soluble”.
On to “MGSSHHHHHHDYDIPTTENLYFQGHMKIGIMSDTHDHLPNIRKAIEIFNDENVETVIHCGDFVSLFVIKEFENLNANIIATYGNNDGERCKLKEWLKDINEENIIDDFISVEIDDLKFFITHGHHQSVLEMAIKSGLYDVVIYGHTHERVFEEVDDVLVINPGECCGYLTGIPTIGILDTEKKEYREIVL”, for which the “soluble on expression in E. coli” value was “soluble”.
For “MGSSHHHHHHGGTGENLYFQGGSGHPASLAAHAFGDASTRSPTHTLPSRCHLFLSLSLSTAAVRRSRASPPLAPTRRTHECLSASHTRTCRQSASFSPLEHPFSFSVAILSSTMPREIKTLKEFLAICSRKDARCVKVKHNPSATKFKVRCSRYLYTLVVNDKKKADKIERSIHPSVKKIAVTARSHAKTNAGSKQ” the value was “not soluble”.
